Legend:
Test in all cases: cell-based or functional assay
[1] = biological target: HIV-1 Env of isolate MG RM-D-001 (subtype D) (HIV-1)
[2] = biological target: HIV-1 Env of isolate MGRM-C-006 (pseudovirus) (HIV-1 isolate MGRM-C-006, subtype C)
[3] = biological target: HIV-1 MGRM-Chronic-B-012 Env (pseudovirus) (HIV-1)
[4] = biological target: HIV-1 NL43 Env (pseudovirus) (HIV-1)
[5] = biological target: HIV-1 Env of isolate 92UG114 (subtype D) (HIV-1)
[6] = biological target: HIV-1 TRJ04551.58 Env (pseudovirus) (HIV-1)
[7] = biological target: HIV-1 VLGCB3 Env (pseudovirus) (HIV-1)
[8] = biological target: HIV-1 Env of isolate MGRM-F1-004 (subtype F) (HIV-1)
[9] = biological target: HIV-1 Env of isolate 92UG046 (subtype D) (HIV-1)
[10] = biological target: HIV-1 93TH305 Env (pseudovirus) (HIV-1)
[11] = biological target: HIV-1 Env of isolate MGRM-C-028 (pseudovirus) (HIV-1 isolate MGRM-C-028, subtype C)
[12] = biological target: HIV-1 JR-CSF Env E466A (HIV-1 (isolate JR-CSF)) (UniProt P20871)
[13] = biological target: HIV-1 JR-CSF Env L179A (HIV-1 (isolate JR-CSF)) (UniProt P20871)
[14] = biological target: HIV-1 MGRM-F1-010 Env (pseudovirus) (HIV-1)
[15] = biological target: HIV-1 MGRM-A-002 envelope glycoprotein (Env) (HIV-1)
[16] = biological target: HIV-1 MGRM-F1-015 Env (pseudovirus) (HIV-1)
[17] = biological target: HIV-1 92UG024 envelope protein (Env) on pseudovirus (HIV-1)
[18] = biological target: HIV-1 98CN009 envelope glycoprotein (Env) on pseudovirus (HIV-1)
[19] = biological target: HIV-1 Env of isolate MGRM-D-020 (clade D) (HIV-1)
[20] = biological target: HIV-1 MGRM-F1-018 Env (pseudovirus) (HIV-1)
[21] = biological target: HIV-1 Env of isolate MGRM-AE-001 (HIV-1)
[22] = biological target: HIV-1 MGRM-F1-008 Env (pseudovirus) (HIV-1)
[23] = biological target: HIV-1 Env of isolate MGRM-D-019 (clade D) (HIV-1)
[24] = biological target: HIV-1 93UG077 envelope glycoprotein (Env) on pseudovirus (HIV-1)
[25] = biological target: HIV-1 93IN905 Env (HIV-1)
[26] = biological target: HIV-1 MGRM-A-004 envelope glycoprotein (Env) (HIV-1)
[27] = biological target: HIV-1 Env of isolate MGRM-D-013 (HIV-1)
[28] = biological target: HIV-1 Env of isolate MGRM-D-012 (HIV-1)
[29] = biological target: HIV-1 Env of isolate MGRM-G-025 (subtype G) (HIV-1)
[30] = biological target: HIV-1 Env of isolate 92UG037 (HIV-1)
[31] = biological target: HIV-1 Env of isolate MGRM-D-021 (HIV-1)
[32] = biological target: HIV-1 Env of isolate JRCSF (HIV-1) (UniProt P20871)

1443_C16 (PG16) (TCN-116) (antibody), sequence (VH): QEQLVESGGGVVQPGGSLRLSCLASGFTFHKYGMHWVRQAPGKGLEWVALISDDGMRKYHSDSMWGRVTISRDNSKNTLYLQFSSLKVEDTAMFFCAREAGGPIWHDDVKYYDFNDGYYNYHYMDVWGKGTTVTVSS
1443_C16 (PG16) (TCN-116) (antibody), sequence (VL): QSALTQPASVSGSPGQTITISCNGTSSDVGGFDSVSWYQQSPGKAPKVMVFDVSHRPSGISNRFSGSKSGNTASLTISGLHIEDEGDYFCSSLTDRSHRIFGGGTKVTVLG
PGT-142 (4995_E20) (antibody), sequence (VH): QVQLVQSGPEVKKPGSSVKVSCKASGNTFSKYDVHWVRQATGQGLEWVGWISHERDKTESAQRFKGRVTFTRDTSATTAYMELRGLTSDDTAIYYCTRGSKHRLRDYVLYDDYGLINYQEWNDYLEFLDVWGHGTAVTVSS
PGT-142 (4995_E20) (antibody), sequence (VL): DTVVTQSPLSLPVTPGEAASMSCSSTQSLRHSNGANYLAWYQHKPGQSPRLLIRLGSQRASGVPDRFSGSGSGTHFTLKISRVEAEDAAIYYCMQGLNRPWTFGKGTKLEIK

Substance	IC50 (µg/mL), pseudovirus neutralization [1]	IC50 (µg/mL) neutralization [2]	IC50, pseudovirus neutralization [3]	IC50, pseudovirus neutralization [4]	IC50 (µg/mL), pseudovirus neutralization [5]	IC50, pseudovirus neutralization [6]	IC50, pseudovirus neutralization [7]	IC50 (µg/mL), pseudovirus neutralization [8]	IC50 (µg/mL), pseudovirus neutralization [9]	IC50, pseudovirus neutralization [10]	IC50 (µg/mL) neutralization [11]	IC50 (µg/ml), pseudovirus neutralization [14]	IC50 (µg/ml), pseudovirus neutralization [15]	IC50 (µg/ml), pseudovirus neutralization [16]	IC50 (µg/ml), pseudovirus neutralization [18]	IC50 (µg/ml), pseudovirus neutralization [19]	IC50 (µg/ml), pseudovirus neutralization [20]	IC50 (µg/ml), pseudovirus neutralization [21]	IC50 (µg/ml), pseudovirus neutralization [23]	IC50 [25]	also measured
4838_L06 (PGT-121) (antibody)	0.615 µg/mL	0.017 µg/mL	0.036 µg/mL	> 50 µg/mL	0.004 µg/mL	7.09 µg/mL	0.005 µg/mL	1.67 µg/mL	> 50 µg/mL	0.007 µg/mL	0.472 µg/mL	–	–	–	–	–	–	–	–	–	–
5145_B14 (PGT-127) (antibody)	2.23 µg/mL	0.319 µg/mL	0.075 µg/mL	> 50 µg/mL	7.09 µg/mL	0.063 µg/mL	0.022 µg/mL	0.068 µg/mL	> 50 µg/mL	0.017 µg/mL	7.57 µg/mL	–	–	–	–	–	–	–	–	–	Fold IC50 increase relative to wild-type [12]: 0.9 fold; Fold IC50 increase relative to wild-type [13]: 2.5 fold
b12 (antibody)	–	–	–	–	–	–	–	–	–	–	–	> 50 µg/mL	> 50 µg/mL	> 50 µg/mL	1.52 µg/mL	> 50 µg/mL	> 50 µg/mL	25.9 µg/mL	> 50 µg/mL	21.4 µg/mL	neutralization IC50 [17]: 49.1 µg/mL; IC50 (µg/ml), pseudovirus neutralization [22]: > 50 µg/mL; IC90 (pseudovirus neutralization) [24]: > 50 µg/mL; IC50 (µg/ml), pseudovirus neutralization [26]: > 50 µg/mL
1496_C09 (PG9) (TCN-109) (antibody)	–	–	–	–	–	–	–	–	–	–	–	0.03 µg/mL	–	–	1.07 µg/mL	2.03 µg/mL	0.03 µg/mL	2.97 µg/mL	0.03 µg/mL	0.03 µg/mL	IC50 (µg/mL), pseudovirus neutralization [27]: 0.021 µg/mL; IC50 (µg/mL), pseudovirus neutralization [21]: 20.6 µg/mL; IC50 (µg/mL), pseudovirus neutralization [28]: 16.2 µg/mL
PGT-142 (4995_E20) (antibody)	–	–	–	–	–	–	–	–	–	–	–	–	–	–	–	–	–	–	–	–	neutralization IC50 [29]: > 50 µg/mL
PGV04 (antibody)	–	–	–	–	–	–	–	–	–	–	–	–	–	–	–	–	–	–	–	–	IC50 (µg/mL), pseudovirus neutralization [27]: 0.088 µg/mL; IC50 [30]: 0.145 µg/mL; IC50 (µg/mL), pseudovirus neutralization [21]: 0.063 µg/mL; IC50 (µg/mL), pseudovirus neutralization [28]: 0.125 µg/mL; IC50 (µg/mL), pseudovirus neutralization [31]: > 50 µg/mL; neutralization IC50 [29]: 1.61 µg/mL
PGT-121 (antibody)	–	–	–	–	–	–	–	–	–	–	–	–	–	–	–	–	–	–	–	–	Primary Neutralization Index (B cell culture well 4838 L06) [32]: 3.2; Primary Neutralization Index (B cell culture well 4873 E03) [32]: 2.2; IC50 (µg/mL), pseudovirus neutralization [30]: 0.031 µg/mL; IC50 (µg/mL), pseudovirus neutralization [21]: > 50 µg/mL
1443_C16 (PG16) (TCN-116) (antibody)	–	–	–	–	–	–	–	–	–	–	–	0.01 µg/mL	0.004 µg/mL	> 50 µg/mL	5.76 µg/mL	16.3 µg/mL	0.01 µg/mL	4.33 µg/mL	0.01 µg/mL	0.25 µg/mL	neutralization IC50 [17]: > 50 µg/mL; IC50 (µg/ml), pseudovirus neutralization [22]: > 50 µg/mL; IC90 (pseudovirus neutralization) [24]: > 50 µg/mL; IC50 (µg/ml), pseudovirus neutralization [26]: 0.04 µg/mL
4877_D15 (PGT-122) (antibody)	1.13 µg/mL	0.018 µg/mL	0.066 µg/mL	> 50 µg/mL	0.011 µg/mL	> 50 µg/mL	0.008 µg/mL	1.29 µg/mL	> 50 µg/mL	0.013 µg/mL	2.22 µg/mL	–	–	–	–	–	–	–	–	–	IC50 (ug/ml), neutralizing activity [24]: 0.191 µg/mL
1495_C14 (PGC14) (antibody)	–	–	–	–	–	–	–	–	–	–	–	> 50 µg/mL	> 50 µg/mL	> 50 µg/mL	43 µg/mL	> 50 µg/mL	> 50 µg/mL	> 50 µg/mL	> 50 µg/mL	19 µg/mL	neutralization IC50 [17]: > 50 µg/mL; IC50 (µg/ml), pseudovirus neutralization [22]: > 50 µg/mL; IC50 (µg/ml), pseudovirus neutralization [26]: > 50 µg/mL
